Results on one molecule are retold here after US7608407 (Boehringer Ingelheim, dated 2009).

The target in the experiment is T1, GST-HDC (human histidine decarboxylase, amino acid residues 1-477, fused to GST) (human, UniProt P19113 1-477).
T1 sequence: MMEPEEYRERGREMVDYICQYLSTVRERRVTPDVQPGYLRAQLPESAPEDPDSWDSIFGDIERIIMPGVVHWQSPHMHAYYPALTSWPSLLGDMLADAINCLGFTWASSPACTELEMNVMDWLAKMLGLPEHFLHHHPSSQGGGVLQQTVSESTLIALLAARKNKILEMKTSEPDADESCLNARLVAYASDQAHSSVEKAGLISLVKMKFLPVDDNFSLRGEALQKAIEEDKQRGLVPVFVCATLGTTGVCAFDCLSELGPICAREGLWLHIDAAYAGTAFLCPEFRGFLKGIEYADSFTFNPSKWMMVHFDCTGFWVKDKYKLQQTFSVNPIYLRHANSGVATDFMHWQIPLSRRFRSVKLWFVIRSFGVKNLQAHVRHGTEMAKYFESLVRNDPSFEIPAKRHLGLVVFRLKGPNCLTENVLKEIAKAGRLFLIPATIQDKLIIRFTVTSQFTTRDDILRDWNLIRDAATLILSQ
The experiment can be described thus: cell-based or functional assay.

For HF [dipeptide histidine-phenylalanine], the “IC50 (inhibition of HDC enzyme activity, standard fluorescence polarization HDC assay)” value was found to be 228 µM.
